The results in this text go back to paper PMC8844822, “SARM1 is a multi-functional NAD(P)ase with prominent base exchange activity, all regulated bymultiple physiologically relevant NAD metabolites” (iScience, 2022).

As usually defined, the Km is the substrate concentration at which the rate is half of its maximum. As usually defined, the Vmax is the top rate of the reaction or transport when substrate is in excess. The kcat is the number of substrate molecules converted per active site and unit of time at saturation. As usually defined, the kcat/Km is the second-order rate constant that governs catalysis at low substrate concentration.

Substrate in data set [1]: NC(=O)c1ccc[n+]([C@@H]2O[C@H](COP(=O)([O-])OP(=O)(O)OC[C@H]3O[C@@H](n4cnc5c(N)ncnc54)[C@H](O)[C@@H]3O)[C@@H](O)[C@H]2O)c1
The data set is described as follows: purified protein, by the assay type. Format: biochemical. The following applies: other: hSARM1 SAM-TIR, pH 7.5.

Substrate in data set [2]: NC(=O)c1ccc[n+]([C@@H]2O[C@H](COP(=O)([O-])OP(=O)(O)OC[C@H]3O[C@@H](n4cnc5c(N)ncnc54)[C@H](O)[C@@H]3O)[C@@H](O)[C@H]2O)c1
The data set can be described thus: purified protein, by the assay type. The following applies: other: Aplysia cyclase, substrate as labelled, pH 7.5.

Substrate in data set [3]: NC(=O)c1ccc[n+]([C@@H]2O[C@H](COP(=O)([O-])OP(=O)(O)OC[C@H]3O[C@@H](n4cnc5c(N)ncnc54)[C@H](O)[C@@H]3O)[C@@H](O)[C@H]2O)c1
The data set can be described thus: NAD(P)ase activity by HPLC (kinetics, substrates, metal ions). The following applies: other: hSARM1 full length. Format: biochemical, human.

The mark [4] stands for this setting: re-elaborated from Table 1, pH 7.5.

B1: hSARM1 SAM-TIR (Homo sapiens) (protein)
chain: VPSWKEAEVQTWLQQIGFSKYCESFREQQVDGDLLLRLTEEELQTDLGMKSGITRKRFFRELTELKTFANYSTCDRSNLADWLGSLDPRFRQYTYGLVSCGLDRSLLHRVSEQQLLEDCGIHLGVHRARILTAAREMLHSPLPCTGGKPSGDTPDVFISYRRNSGSQLASLLKVHLQLHGFSVFIDVEKLEAGKFEDKLIQSVMGARNFVLVLSPGALDKCMQDHDCKDWVHKEIVTALSCGKNIVPIIDGFEWPEPQVLPEDMQAVLTFNGIKWSHEYQEATIEKIIRFLQGRSSRDSSAGSDTSLEGAAPMGPT
notes: made in house
Regarding B1, in data set [1], the Km turned out to be 69.5 ± 2.31 µM, the maximum rate (Vmax) was 0.723 µmol/min/mg, the kcat turned out to be 0.448 ± 0.009 s⁻¹ and the kcat/Km is 6500 ± 350 M⁻¹ s⁻¹.

B2: Aplysia californica ADP ribosyl cyclase (Aplysia californica) (protein)
chain: IVPTRELENVFLGRCKDYEITRYLDILPRVRSDCSALWKDFFKAFSFKNPCDLDLGSYKDFFTSAQQQLPKNKVMFWSGVYDEAHDYANTGRKYITLEDTLPGYMLNSLVWCGQRANPGFNEKVCPDFKTCPVQARESFWGMASSSYAHSAEGEVTYMVDGSNPKVPAYRPDSFFGKYELPNLTNKVTRVKVIVLHRLGEKIIEKCGAGSLLDLEKLVKAKHFAFDCVENPRAVLFLLCSDNPNARECRLAKRFYRIA
On to B2, for which, in data set [2], the Michaelis constant (Km) worked out at 212 ± 13.7 µM and the Vmax was 51.4 ± 1.24 µmol/min/mg.

B3: human SARM1 full length (Homo sapiens) (protein)
chain: LAVPGPDGGGGTGPWWAAGGRGPREVSPGAGTEVQDALERALPELQQALSALKQAGGARAVGAGLAEVFQLVEEAWLLPAVGREVAQGLCDAIRLDGGLDLLLRLLQAPELETRVQAARLLEQILVAENRDRVARIGLGVILNLAKEREPVELARSVAGILEHMFKHSEETCQRLVAAGGLDAVLYWCRRTDPALLRHCALALGNCALHGGQAVQRRMVEKRAAEWLFPLAFSKEDELLRLHACLAVAVLATNKEVEREVERSGTLALVEPLVASLDPGRFARCLVDASDTSQGRGPDDLQRLVPLLDSNRLEAQCIGAFYLCAEAAIKSLQGKTKVFSDIGAIQSLKRLVSYSTNGTKSALAKRALRLLGEEVPRPILPSVPSWKEAEVQTWLQQIGFSKYCESFREQQVDGDLLLRLTEEELQTDLGMKSGITRKRFFRELTELKTFANYSTCDRSNLADWLGSLDPRFRQYTYGLVSCGLDRSLLHRVSEQQLLEDCGIHLGVHRARILTAAREMLHSPLPCTGGKPSGDTPDVFISYRRNSGSQLASLLKVHLQLHGFSVFIDVEKLEAGKFEDKLIQSVMGARNFVLVLSPGALDKCMQDHDCKDWVHKEIVTALSCGKNIVPIIDGFEWPEPQVLPEDMQAVLTFNGIKWSHEYQEATIEKIIRFLQGRSSRDSSAGSDTSLEGAAPMGPT
notes: Human recombinant SARM1 full length proteins (wild-type and E642A mutant); made in house
Take B3: in data set [3] (no NMN, pH 7.5), the Km was determined as 30.3 ± 5.18 µM and the Vmax stood at 0.0224 µmol/min/mg. In addition, in data set [3] (setting [4]), the kcat amounted to 0.03 ± 0.007 s⁻¹ and the kcat/Km came to 1000 ± 350 M⁻¹ s⁻¹.
